B1: mRNA-splicing (parent)
chain: AGUUGCUGCUGGGAGCUCCAGCACAGUGAAAUGGACAGAAGGGCAGAGCAA

Variants of: B1
Assay: exon inclusion enrichment index; higher = more inclusion; WT1 exon 5 minigene, HEK293

Row | Variant | exon inclusion enrichment index
1 | AGUUAGGGAUGGGAGCUCCAGCGUAGUGAAAUGGACAGAAGGGCAGAGCAA | 0.000891
2 | AGUUAUAACCGGGAGCUCCAGCACAGUGAAAUGGACAGAAGGGCAGAGCAA | 0.863
3 | AGUUCACACAGGGAGCUCCAGCACAGUGAAAUGGACAGAAGAUCAGAGCAA | 1.25
4 | AGUUGCUGCUACGAGCUCCAGCACAGUGAAAUGGACAGAAGGGCAGAGCAA | 1.9
5 | AGUUACCACCGGGAGCUCCAGCACAGUGAAAUGGCCAGAAGGGCAGAGCAA | 0.917
6 | AGAACUUCUCGGGAGCUCCAGCACAGUGAAAUGGACAGAAGGGCAGAGCAA | 1.8
7 | AGUUAUAUAUGGGAGCUCCAGCACAGUGAAAUGGACACCAGGGCAGAGCAA | 0.105
8 | AGUUAGAUAUGGGAGCUCCAGCACAGUGAAAUGGACAGAAGGGCAGAGCAA | 0.00788
9 | AGUUGACGACGGGAGCUCCCACACAGUGAAAUGGACAGAAGGGCAGAGCAA | 2.38
10 | AGUUUCUUUUGGGAGCUCCAGCACAGUGAAAUGGACAGAAUCGCAGAGCAA | 0.47
11 | AGUUGCUGCUGUCAGCUCCAGCACAGUGAAAUGGACAGAAGGGCAGAGCAA | 0.721
12 | AGUUCUUCUCGGGAGCUCCAGCACAGUGAAAUGGACAGAAGGGCACAGCAA | 1.62
13 | AGUUACCACCGGGAGCUCCAGGACAGUGAAAUGGACAGAAGGGCAGAGCAA | 3.37
14 | AGUUCGCGCCGGGAGCUCCAGCACAGUGGCAUGGACAGAAGGGCAGAGCAA | 2.29
15 | AGUUGAAGAAGGGGUCUCCAGCACAGUGAAAUGGACAGAAGGGCAGAGCAA | 0.274
16 | AGUUCGCGCCGGGAGCUCCAGCACAGUGAAAUGGACAUUAGGGCAGAGCAA | 0.22
17 | AGGAUCUUUUGGGAGCUCCAGCACAGUGAAAUGGACAGAAGGGCAGAGCAA | 0.0683
18 | AGUUCUUCUCGGGUGCUCCAGCACAGUGAAAUGGACAGAAGGGCAGAGCAA | 0.661
19 | AGUUCUCUUCGGGAGCUCCAGCACAGUGAAAUGGACAGAAGGGCAGAGCAA | 1.35
20 | AGUUACUGCUGGGAGCUCCAGCACAGUGAAAUGGACAGAAGGGCAGAGCAA | 0.039
21 | AGUUCGCGCCGGGAGCUGAAGCACAGUGAAAUGGACAGAAGGGCAGAGCAA | 4.24
22 | AGUUGACGACGGGAGCUCCAGCACAGUGAAAUGGACAGAAGGGCAGAUCAA | 3.83
23 | AGUAAGCGCCGGGAGCUCCAGCACAGUGAAAUGGACAGAAGGGCAGAGCAA | 1.18
24 | AGUGUGCGCCGGGAGCUCCAGCACAGUGAAAUGGACAGAAGGGCAGAGCAA | 0.917
25 | AGUUGCUGCUGGGAGCUCCAGCACAGUGUGAUGGACAGAAGGGCAGAGCAA | 0.237
26 | AGUUGCUGCUGGGAGCUCCAGCACAGUGUCAUGGACAGAAGGGCAGAGCAA | 0.119

Row | Variant | exon inclusion enrichment index
27 | AGUGACUGCUGGGAGCUCCAGCACAGUGAAAUGGACAGAAGGGCAGAGCAA | 0.101
28 | AGUUGCAGAAGGGAGCUCCAGCACAGUGAAAUGGACAGAAGGGCAGAGCAA | 0.589
29 | AGUUCACACAGGGAGCUCCAAUACAGUGAAAUGGACAGAAGGGCAGAGCAA | 0.0694
30 | AGUUGCUGCUGGGAGCUCCAGCAGUGUGAAAUGGACAGAAGGGCAGAGCAA | 0.0194
31 | AGUUGCUCUUGGGAGCUCCAGCACAGUGAAAUGGACAGAAGGGCAGAGCAA | 0.216
32 | AGUUAUAUAUGAUAGCUCCAGCACAGUGAAAUGGACAGAAGGGCAGAGCAA | 0.000604
33 | AGUUGACGACGGGAGUGCCAGCACAGUGAAAUGGACAGAAGGGCAGAGCAA | 2.04
34 | AGUUUCGAUUGGGAGCUCCAGCACAGUGAAAUGGACAGAAGGGCAGAGCAA | 1.04
35 | AGUUGCUGCUGGAGGCUCCAGCACAGUGAAAUGGACAGAAGGGCAGAGCAA | 0.249
36 | AGUUAGGGAUGGGAGCUCCAGCAGUGUGAAAUGGACAGAAGGGCAGAGCAA | 0.00102
37 | AGUUCGCGCCGGGAGCUCCAGCACAACGAAAUGGACAGAAGGGCAGAGCAA | 4.94
38 | AGUUGCUGCUGGGAGCUCCAGCACAGUGAAAUGGACAGCCGGGCAGAGCAA | 0.407
39 | AGUUGACGACGGGAGCUCCAGCACUUUGAAAUGGACAGAAGGGCAGAGCAA | 2.49
40 | AGUUAUAUAUGGGAGCUCCACUACAGUGAAAUGGACAGAAGGGCAGAGCAA | 0.0665
41 | AGUUAGGGAUGUUAGCUCCAGCACAGUGAAAUGGACAGAAGGGCAGAGCAA | 0.000533
42 | AGUUAUAUAUGGGAGCUCCAAUACAGUGAAAUGGACAGAAGGGCAGAGCAA | 0.021
43 | AGUUAUAGAUGGGAGCUCCAGCACAGUGAAAUGGACAGAAGGGCAGAGCAA | 0.0715
44 | AGUUGAAUGAGGGAGCUCCAGCACAGUGAAAUGGACAGAAGGGCAGAGCAA | 0.135
45 | AGUUCUUCUCUUGAGCUCCAGCACAGUGAAAUGGACAGAAGGGCAGAGCAA | 0.188
46 | AGUGCGCGCCGGGAGCUCCAGCACAGUGAAAUGGACAGAAGGGCAGAGCAA | 0.681
47 | AACUCACACAGGGAGCUCCAGCACAGUGAAAUGGACAGAAGGGCAGAGCAA | 0.124
48 | AGUUCACACAGGGAGCUCCAGCACAGGCAAAUGGACAGAAGGGCAGAGCAA | 0.0314
49 | AGUUGACGACGGGAGCUCCAGCAUAGUGAAAUGGACAGAAGGGCAGAGCAA | 1.66
50 | AGUUGACGACGGGAUUUCCAGCACAGUGAAAUGGACAGAAGGGCAGAGCAA | 3.12
51 | AGUUGACGACGGGAGCUCCAGCACAGUCAAAUGGACAGAAGGGCAGAGCAA | 3.06
52 | AGUUACCACCGCAAGCUCCAGCACAGUGAAAUGGACAGAAGGGCAGAGCAA | 0.95

Row | Variant | exon inclusion enrichment index
53 | AGUUGAAGAAGGGAGCUCCAGCACAGUGAAAUGGACAGAAGGUAAGAGCAA | 0.0263
54 | AGUUCUUCUCGGGAGCUCCAGCACAGUGAAAUGGACAGAAGGGCGAAGCAA | 3.98
55 | AGUUCUUCUCGGGAGCUCCAGCACAGUGAAAUGGACAGAAGGGCAUUGCAA | 2.05
56 | AGUUCACACAGGGAGCUCCAGCACAGUGAACGGGACAGAAGGGCAGAGCAA | 0.221
57 | AGUUCGCGCCGGGAGCUCCAGCACAGUGAAAUGGCCAGAAGGGCAGAGCAA | 1.69
58 | AGUUCACACAGGGAGCUCCAGCACAGUGAAAUGGAAUGAAGGGCAGAGCAA | 0.0382
59 | AGUUCGCGCCGGGAGCUCCAGCACAGUGAAAUGGACAGAAGGGCAGGCCAA | 2.32
60 | AGUUCACACAGGGAGCUCCAGCACAGUGAAAUGGACAGAAGGGCAAGGCAA | 0.0332
61 | AGUUAGGGAUGGGAGCUCCAGCACAGUGAAAUGGACCGAAGGGCAGAGCAA | 0.00434
62 | AGGAGACGACGGGAGCUCCAGCACAGUGAAAUGGACAGAAGGGCAGAGCAA | 1.52
63 | AGUUAGGGAUGGGAGCUCCAGCACAGUGAAAUGGACCAAAGGGCAGAGCAA | 0.00086
64 | AGUUCACACAGGGAGCUCCAGCACAGCAAAAUGGACAGAAGGGCAGAGCAA | 0.142
65 | AGUUGAAGAAGGGAGCUCCCCCACAGUGAAAUGGACAGAAGGGCAGAGCAA | 0.209
66 | AGUUAGGGAUAUGAGCUCCAGCACAGUGAAAUGGACAGAAGGGCAGAGCAA | 0.000779
67 | AGUUAGGGAUGGGAGCUAGAGCACAGUGAAAUGGACAGAAGGGCAGAGCAA | 0.00131
68 | AGUUCUUUACGGGAGCUCCAGCACAGUGAAAUGGACAGAAGGGCAGAGCAA | 0.494
69 | AGUCCCCACCGGGAGCUCCAGCACAGUGAAAUGGACAGAAGGGCAGAGCAA | 1.51
70 | AGUUUCUUUUGGGAGCUCCAGCACAGUGAAAUGGAGCGAAGGGCAGAGCAA | 0.0336
71 | AGUUAUAUAUGGGAGCUCCAGCACAGUGAAAUGGACAGAAGGGCAGCUCAA | 0.0767
72 | AGUUGAACUAGGGAGCUCCAGCACAGUGAAAUGGACAGAAGGGCAGAGCAA | 0.0222
73 | AGUUGACGACGGGAGCUCCAGCACAGUGAAAUGGACAGAAGGGCGGAGCAA | 4.95
74 | AGUUGAAGAAGGGAGCUCCAGCACAGUGAAAUGGACAGAAUAGCAGAGCAA | 0.192
75 | AGUUCGCGCCGGGAGAUCCAGCACAGUGAAAUGGACAGAAGGGCAGAGCAA | 4.33
76 | AGUUGAAGAAGGGAGCUCCAGCACAGUGAAAUGGACAGAAGGACAGAGCAA | 2.02
77 | AGUUCACACAGGGAGCGUCAGCACAGUGAAAUGGACAGAAGGGCAGAGCAA | 0.0504
78 | AGUUUCUUUUGGGAGCUCCAGCAUAGUGAAAUGGACAGAAGGGCAGAGCAA | 0.0331

Row | Variant | exon inclusion enrichment index
79 | AGUUUCUUUACGGAGCUCCAGCACAGUGAAAUGGACAGAAGGGCAGAGCAA | 0.155
80 | AGUUAGGGAUGGGAGUCCCAGCACAGUGAAAUGGACAGAAGGGCAGAGCAA | 0.000766
81 | AGUUGCUGCUGGGAGCUCCAGCACAGUGAAAUGGACAGAAGGGCAGCGCAA | 0.293
82 | AGUUGAAGAAGGGACGUCCAGCACAGUGAAAUGGACAGAAGGGCAGAGCAA | 0.812
83 | AGUUAUAUAUGGGAGCUCCAGCAUUGUGAAAUGGACAGAAGGGCAGAGCAA | 0.0538
84 | AGUUAUAUAUGGGAGCUCCAGCACAGUGAAAUGGACAGAAGCACAGAGCAA | 0.295
85 | AGUUAGGGAUGGGAGCUCCAGCACAGUGAAAUGGACAGUGGGGCAGAGCAA | 0.00317
86 | AGUUGACUCCGGGAGCUCCAGCACAGUGAAAUGGACAGAAGGGCAGAGCAA | 2.98
87 | AGUUGACGAGUGGAGCUCCAGCACAGUGAAAUGGACAGAAGGGCAGAGCAA | 2.09
88 | AGUUACCACGAGGAGCUCCAGCACAGUGAAAUGGACAGAAGGGCAGAGCAA | 2.46
89 | AGUUAUAUAUGGGAGCUCCAGCACAGUGAAAGGGACAGAAGGGCAGAGCAA | 0.0013
90 | AGUUCACACAGGGAGCCACAGCACAGUGAAAUGGACAGAAGGGCAGAGCAA | 0.063
91 | AGUUGACGACGGGCACUCCAGCACAGUGAAAUGGACAGAAGGGCAGAGCAA | 2.13
92 | AGUUCACACAGGGAGCUCCAGCACAGUGAGCUGGACAGAAGGGCAGAGCAA | 0.00678
93 | AGUUGACGACGGGAGCUCCAGCACAGUGAAAUGAACAGAAGGGCAGAGCAA | 2.27
94 | AGUUAUAUAUGGGAGCUCCAGCACAGUGAAAUGAGCAGAAGGGCAGAGCAA | 0.00212
95 | AGUUAGGGAUGGGAGCUCCAGCACAGUGAAAUGGACAGAAGGGCCGAGCAA | 0.00288
96 | AGUUAGGGAUGGGAGCUCCAGCACAGUGAAAUGGACAGAAGGGCUGAGCAA | 0.00141
97 | AGUUGAAGAAGGGAGCUCCAGCAACGUGAAAUGGACAGAAGGGCAGAGCAA | 2.22
98 | AGUUGAAGAAGGGAGCUCCGCCACAGUGAAAUGGACAGAAGGGCAGAGCAA | 0.891
99 | AGUUAGGGAUGGGAGCUCCAGCCAAGUGAAAUGGACAGAAGGGCAGAGCAA | 0.00335
100 | AGUUCGCGCCGGCGGCUCCAGCACAGUGAAAUGGACAGAAGGGCAGAGCAA | 1.61
101 | AGUUGCUGCUGGUAGCUCCAGCACAGUGAAAUGGACAGAAGGGCAGAGCAA | 0.0154
102 | AGUUUCUUUUGGGAGCUCCAGCACAGUGAAAUGGACAGAAGGCCAGAGCAA | 0.199

— the RNAGym collection of RNA variant scans (doi:10.1101/gr.219683.116)
